According to the supplement of paper PMC5998384:

Tests used:
HeLa Kyoto [1] = assay: thermal stability score vs G1/S (z-score of summed log2 fold changes over temperatures); higher = more thermally stable than in G1/S
HeLa Kyoto [2] = assay: solubility in G1/S (NP-40 vs SDS abundance) (log2 ratio); higher = more soluble; settings: cell cycle stage: G1/S
HeLa Kyoto [3] = assay: melting temperature (median over replicates), in situ; higher = more thermally stable
HeLa Kyoto [4] = assay: solubility change mitosis vs G1/S (difference of NP-40 vs SDS log2 ratios) (log2 ratio difference); higher = more soluble in mitosis
[5] = cell cycle stage: early G1 (4.5 h after nocodazole release)
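For melting temperature (median over replicates), in situ in this document: HeLa Kyoto cells synchronized by double thymidine or nocodazole block, proteins quantified by TMT10plex mass spectrometry, three independent biological replicates.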
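For solubility change mitosis vs G1/S (difference of NP-40 vs SDS log2 ratios) in this document: synchronized HeLa Kyoto cells (double thymidine block for G1/S, nocodazole release for mitosis), protein amounts in NP-40 versus SDS lysates quantified by mass spectrometry, three biological replicates.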
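For solubility in G1/S (NP-40 vs SDS abundance) in this document: HeLa Kyoto cells arrested at G1/S by double thymidine block, proteins quantified by TMT10plex mass spectrometry in mild NP-40 versus SDS extracts, three biological replicates.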
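For thermal stability score vs G1/S (z-score of summed log2 fold changes over temperatures) in this document: synchronized HeLa Kyoto cells, proteins quantified by TMT10plex mass spectrometry, three biological replicates, mitosis taken 0.5 h after nocodazole release, G1/S directly after double thymidine block.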

Substance | thermal stability score (HeLa Kyoto [1]; [5]) | thermal stability score (HeLa Kyoto [1]; cell cycle stage: mitosis) | solubility in G1/S (log2) (HeLa Kyoto [2]) | melting temperature (HeLa Kyoto [3]; cell cycle stage: G1/S) [°C] | melting temperature (HeLa Kyoto [3]; cell cycle stage: mitosis) [°C] | solubility change mitosis (log2) (HeLa Kyoto [4])
MAFANFRRILRLSTFEKRKSREYEHVRRDLDPNEVWEIVGELGDGAFGKVYKAKNKETGALAAAKVIETKSEEELEDYIVEIEILATCDHPYIVKLLGAYYHDGKLWIMIEFCPGGAVDAIMLELDRGLTEPQIQVVCRQMLEALNFLHSKRIIHRDLKAGNVLMTLEGDIRLADFGVSAKNLKTLQKRDSFIGTPYWMAPEVVMCETMKDTPYDYKADIWSLGITLIEMAQIEPPHHELNPMRVLLKIAKSDPPTLLTPSKWSVEFRDFLKIALDKNPETRPSAAQLLEHPFVSSITSNKALRELVAEAKAEVMEEIEDGRDEGEEEDAVDAASTLENHTQNSSEVSPPSLNADKPLEESPSTPLAPSQSQDSVNEPCSQPSGDRSLQTTSPPVVAPGNENGLAVPVPLRKSRPVSMDARIQVAQEKQVAEQGGDLSPAANRSQKASQSRPNSSALETLGGEKLANGSLEPPAQAAPGPSKRDSDCSSLCTSESMDYGTNLSTDLSLNKEMGSLSIKDPKLYKKTLKRTRKFVVDGVEVSITTSKIISEDEKKDEEMRFLRRQELRELRLLQKEEHRNQTQLSNKHELQLEQMHKRFEQEINAKKKFFDTELENLERQQKQQVEKMEQDHAVRRREEARRIRLEQDRDYTRFQEQLKLMKKEVKNEVEKLPRQQRKESMKQKMEEHTQKKQLLDRDFVAKQKEDLELAMKRLTTDNRREICDKERECLMKKQELLRDREAALWEMEEHQLQERHQLVKQQLKDQYFLQRHELLRKHEKEREQMQRYNQRMIEQLKVRQQQEKARLPKIQRSEGKTRMAMYKKSLHINGGGSAAEQREKIKQFSQQEEKRQKSERLQQQQKHENQMRDMLAQCESNMSELQQLQNEKCHLLVEHETQKLKALDESHNQNLKEWRDKLRPRKKALEEDLNQKKREQEMFFKLSEEAECPNPSTPSKAAKFFPYSSADAS [STK10] | 1.19 | 2.43 | 0.0626 | 48.1 | 48.2 | -0.0397
MDTESTYSGYSYYSSHSKKSHRQGERTRERHKSPRNKDGRGSEKSVTIQPPTGEPLLGNDSTRTEEVQDDNWGETTTAITGTSEHSISQEDIARISKDMEDSVGLDCKRYLGLTVASFLGLLVFLTPIAFILLPPILWRDELEPCGTICEGLFISMAFKLLILLIGTWALFFRKRRADMPRVFVFRALLLVLIFLFVVSYWLFYGVRILDSRDRNYQGIVQYAVSLVDALLFIHYLAIVLLELRQLQPMFTLQVVRSTDGESRFYSLGHLSIQRAALVVLENYYKDFTIYNPNLLTASKFRAAKHMAGLKVYNVDGPSNNATGQSRAMIAAAARRRDSSHNELYYEEAEHERRVKKRKARLVVAVEEAFIHIQRLQAEEQQKAPGEVMDPREAAQAIFPSMARALQKYLRITRQQNYHSMESILQHLAFCITNGMTPKAFLERYLSAGPTLQYDKDRWLSTQWRLVSDEAVTNGLRDGIVFVLKCLDFSLVVNVKKIPFIILSEEFIDPKSHKFVLRLQSETSV [VANGL1] | -1.85 | -3.36 | -0.322 | 56 | 54.7 | 0.00763
MGSPLRFDGRVVLVTGAGAGLGRAYALAFAERGALVVVNDLGGDFKGVGKGSLAADKVVEEIRRRGGKAVANYDSVEEGEKVVKTALDAFGRIDVVVNNAGILRDRSFARISDEDWDIIHRVHLRGSFQVTRAAWEHMKKQKYGRIIMTSSASGIYGNFGQANYSAAKLGLLGLANSLAIEGRKSNIHCNTIAPNAGSRMTQTVMPEDLVEALKPEYVAPLVLWLCHESCEENGGLFEVGAGWIGKLRWERTLGAIVRQKNHPMTPEAVKANWKKICDFENASKPQSIQESTGSIIEVLSKIDSEGGVSANHTSRATSTATSGFAGAIGQKLPPFSYAYTELEAIMYALGVGASIKDPKDLKFIYEGSSDFSCLPTFGVIIGQKSMMGGGLAEIPGLSINFAKVLHGEQYLELYKPLPRAGKLKCEAVVADVLDKGSGVVIIMDVYSYSEKELICHNQFSLFLVGSGGFGGKRTSDKVKVAVAIPNRPPDAVLTDTTSLNQAALYRLSGDWNPLHIDPNFASLAGFDKPILHGLCTFGFSARRVLQQFADNDVSRFKAIKARFAKPVYPGQTLQTEMWKEGNRIHFQTKVQETGDIVISNAYVDLAPTSGTSAKTPSEGGKLQSTFVFEEIGRRLKDIGPEVVKKVNAVFEWHITKGGNIGAKWTIDLKSGSGKVYQGPAKGAADTTIILSDEDFMEVVLGKLDPQKAFFSGRLKARGNIMLSQKLQMILKDYAKL [HSD17B4] | 0.589 | 0.868 | 0.00461 | 54.2 | 54.1 | -0.0933
ALDH3A2 | -0.835 | -0.622 | -0.186 | 51 | 50.7 | -0.0531
ATP1B3 | -1.58 | -2.77 | 0.832 | 55.5 | 56.1 | 0.0393
MLSVRVAAAVVRALPRRAGLVSRNALGSSFIAARNFHASNTHLQKTGTAEMSSILEERILGADTSVDLEETGRVLSIGDGIARVHGLRNVQAEEMVEFSSGLKGMSLNLEPDNVGVVVFGNDKLIKEGDIVKRTGAIVDVPVGEELLGRVVDALGNAIDGKGPIGSKTRRRVGLKAPGIIPRISVREPMQTGIKAVDSLVPIGRGQRELIIGDRQTGKTSIAIDTIINQKRFNDGSDEKKKLYCIYVAIGQKRSTVAQLVKRLTDADAMKYTIVVSATASDAAPLQYLAPYSGCSMGEYFRDNGKHALIIYDDLSKQAVAYRQMSLLLRRPPGREAYPGDVFYLHSRLLERAAKMNDAFGGGSLTALPVIETQAGDVSAYIPTNVISITDGQIFLETELFYKGIRPAINVGLSVSRVGSAAQTRAMKQVAGTMKLELAQYREVAAFAQFGSDLDAATQQLLSRGVRLTELLKQGQYSPMAIEEQVAVIYAGVRGYLDKLEPSKITKFENAFLSHVVSQHQALLGTIRADGKISEQSDAKLKEIVTNFLAGFEA [ATP5A1] | -1.58 | -1.35 | 0.231 | 59.9 | 58.9 | -0.0479
MAAPLIPLSQQIPTGNSLYESYYKQVDPAYTGRVGASEAALFLKKSGLSDIILGKIWDLADPEGKGFLDKQGFYVALRLVACAQSGHEVTLSNLNLSMPPPKFHDTSSPLMVTPPSAEAHWAVRVEEKAKFDGIFESLLPINGLLSGDKVKPVLMNSKLPLDVLGRVWDLSDIDKDGHLDRDEFAVAMHLVYRALEKEPVPSALPPSLIPPSKRKKTVFPGAVPVLPASPPPKDSLRSTPSHGSVSSLNSTGSLSPKHSLKQTQPTVNWVVPVADKMRFDEIFLKTDLDLDGYVSGQEVKEIFMHSGLTQNLLAHIWALADTRQTGKLSKDQFALAMYFIQQKVSKGIDPPQVLSPDMVPPSERGTPGPDSSGSLGSGEFTGVKELDDISQEIAQLQREKYSLEQDIREKEEAIRQKTSEVQELQNDLDRETSSLQELEAQKQDAQDRLDEMDQQKAKLRDMLSDVRQKCQDETQMISSLKTQIQSQESDLKSQEDDLNRAKSELNRLQQEETQLEQSIQAGRVQLETIIKSLKSTQDEINQARSKLSQLHESRQEAHRSLEQYDQVLDGAHGASLTDLANLSEGVSLAERGSFGAMDDPFKNKALLFSNNTQELHPDPFQTEDPFKSDPFKGADPFKGDPFQNDPFAEQQTTSTDPFGGDPFKESDPFRGSATDDFFKKQTKNDPFTSDPFTKNPSLPSKLDPFESSDPFSSSSVSSKGSDPFGTLDPFGSGSFNSAEGFADFSQMSKPPPSGPFTSSLGGAGFSDDPFKSKQDTPALPPKKPAPPRPKPPSGKSTPVSQLGSADFPEAPDPFQPLGADSGDPFQSKKGFGDPFSGKDPFVPSSAAKPSKASASGFADFTSVS [EPS15L1] | 0.244 | 1.69 | 0.43 | 49.6 | 51.2 | -0.0276
